Experimental data as given in publication doi:10.1101/2022.01.25.477770 (bioRxiv, 2022).

How the values were obtained:
Experiment in all cases: ELISA
Conditions in all cases: both partners purified
[1] = target: T1, WIV1 prefusion-stabilized spike (S2P) (Bat SARS-like coronavirus WIV1 …, UniProt U5WI05, stabilised)
T1 construct: also called WIV1 S2P

[2] = target: T2, MERS-CoV prefusion-stabilized spike (S2P) (MERS-CoV EMC/2012 (GenBank AFS88936), UniProt K0BRG7, stabilised)
T2 construct: also called MERS-CoV S2P

[3] = target: T3, SHC014 prefusion-stabilized spike (S2P) (Bat SARS-like coronavirus RsSHC014 …, UniProt U5WLK5, stabilised)
T3 construct: also called SHC014 S2P

[4] = target: T4, SARS-CoV prefusion-stabilized spike (S2P) (SARS-CoV Urbani (AAP13441.1), UniProt P59594, stabilised)
T4 construct: also called SARS-CoV S2P

[5] = target: T5, RaTG13 prefusion-stabilized spike (S2P) (Bat coronavirus RaTG13 (GenBank …, UniProt A0ABF7PLN6, stabilised))
T5 construct: also called RaTG13 S2P

Measured: binding result

B1: antibody WS6 (IgG) (antibody, V domains shown)
VH: EVQFQQSGTVLARPGASVKMSCKASGYTFTNYWIHWVKQRPGQGLEYIGGTYPGNGDTTYNQKFKGKAKVTAVTPTSTAYMDLSSLTNEDSAVYYCTRTGSYFDYWGQGTTLTVSS
VL: QIVLTQSPAIMSASPGEKVTISCSATSSVSYIYWYQQRPGSSPKPWIYRTSNLASGVPVRFSGSGSGTSYSLTISNMEAEDAATYYCQQYQSYPPTFGAGTKLELK
notes: also called mAb WS6
binds: [1] | [2] | [3] | [4] | [5]
